Test results published in patent US20180179292A1, “RKIP AGONISM IN THE TREATMENT AND PREVENTION OF HEART FAILURE” (Leibniz-Institut für analytische Wissenschaften- ISAS-e.V., priority 2015, published 2018).

Assays:
[1] = system: neonatal rat cardiomyocytes (NRCM); assay: Contractile activity of neonatal rat cardiomyocytes; assay type: cell-based; conditions: in the presence of isoprenaline (50 nM), 33° C., beats per minute
Experimental: NRCM were cultured for 24 h and transduced as indicated with a control virus (LacZ) or a virus encoding RKIP-wt and/or treated with rituximab as indicated. The spontaneous contractions were measured at 33° C. for one minute and normalized for each experiment to LacZ under unstimulated conditions. NRCM were then stimulated with isoproterenol (50 nM) and after 2 min contractions were counted again. SEM; *, p<0.0001, n=5
Neonatal rat cardiomyocytes were isolated as described (Lorenz et al. Nature 2003, 426:574-579; Vidal et al., Cardiovasc. Res. 2012, 96:255-264). Cardiomyocytes were transduced by adenoviruses or treated with indicated antibodies. To monitor the contractile activity of cardiomyocytes, live cells were examined on a Zeiss Axiovert 135 microscope.

[2] = system: neonatal rat cardiac fibroblasts; assay: [3H]Thymidine incorporation in neonatal rat fibroblasts; assay type: cell-based; conditions: adenovirally transduced Flag-RKIP, 0.1% FCS, 96 h

B1: RKIP: Raf kinase inhibitor protein, overexpressed in cells by adenoviral transduction (protein, UniProt P30086 2-187, looked up)
Phosphatidylethanolamine-bindi …: PVDLSKWSGPLSLQEVDEQPQHPLHVTYAGAAVDELGKVLTPTQVKNRPTSISWDGLDSGKLYTLVLTDPDAPSRKDPKYREWHHFLVVNMKGNDISSGTVLSDYVGSGPPKGTGLHRYVWLVYEQDRPLKCDEPILSNRSGDHRGKFKVASFRKKYELRAPVAGTCYQAEWDDYVPKLYEQLSGK
modifications: Flag tag
- NRCM contractility [1]: increased NRCM contractility
- proliferation ([3H]thymidine incorporation) [2]: minor but significant anti-proliferative effect
